Results on two molecules are retold here after patent US5424205A, “Amyloidin protease and uses thereof” (Athena Neurosciences, Inc., priority 1993, dated 1995).

Entries after “also recorded” stand apart in the source; their conditions may differ. Residues, ends and D or L forms follow the SMILES beside them.

In data set [1] the target is T1, amyloidin (Homo sapiens, UniProt P52888).
T1 construct: from tissue; a purification from blood is also described
Nature of the data set: Cleavage of APP592-601 and its analogs by amyloidin (subsite requirements). The class given is biochemical. To be noted: pH 7.5, CaCl2, 37° C., 60 min; RP-HPLC. The procedure: (§1) Routinely, 25 ul of enzyme solution were mixed with 10 ul of 1M Tris, pH 7.5, 5 ul 10 mM CaCl2, and 10 ul of a 2 mg/ml Stock solution of APP592-601 in water, or 20 mM Tris, pH 7.5, 0.15M NaCl, in 1.5 ml polypropylene microfuge tubes. The reaction mixtures were incubated for 60 min at 37° C. in a water bath, then quenched with 450 ul ice-cold ethanol, and incubated on ice for a further 20 min. They were centrifuged at 15,000×g for 10 min, and the supernatants transferred to new polypropylene tubes and dried under vacuum. The residue was dissolved in 0.5 ml water, centrifuged at 15,000×g for 5 min, and 200 ul of the supernatant injected onto a 0.46×30 cm Vydac C18 column equilibrated with 0.1% trifluoroacetic acid in water, at 1 ml/min. The column was immediately eluted with a linear gradient to 40% acetronitrile in 0.1% trifluoroacetic acid in water, over 20 minutes. The elution was monitored at 220 nm, and peaks were individually collected, hydrolyzed in 6N HCl at […] for 2 hr, then subjected to quantitative amino-acid analysis in an Applied Biosystems amino-acid analyzer. Once identified, times of elution were used to identify cleavage patterns.
In order to test the subsite requirements of amyloidin in the APP592-601 cleavage assay, analogs of this peptide substrate were synthesized.
Following synthesis and purification, the peptides were then incubated with amyloidin under conditions identical to those developed with APP592-601. The underlined residues designated changes from the native peptide sequence while the arrows indicate peptide cleavage sites. [drawing 5]

The target in another data set is T2, clipsin/RMCP I (Rattus norvegicus, UniProt P09650).
T2 sequence (P09650 21-260): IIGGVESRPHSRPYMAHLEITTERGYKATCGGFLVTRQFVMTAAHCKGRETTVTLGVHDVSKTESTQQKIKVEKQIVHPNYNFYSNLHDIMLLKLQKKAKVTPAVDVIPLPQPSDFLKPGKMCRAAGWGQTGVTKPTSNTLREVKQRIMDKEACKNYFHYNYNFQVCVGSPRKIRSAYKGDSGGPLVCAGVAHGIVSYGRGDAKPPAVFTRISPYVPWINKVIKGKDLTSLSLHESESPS
Nature of the data set: Cleavage of APP592-601 by clipsin/RMCP I. To be noted: standard peptide cleavage assay. The class given is biochemical. The procedure: as §1
The procedure to isolate RMCP I was adapted exactly from that described by Nelson & Siman (1990), supra. […]

For data set [2], the system named is human skin chymase (HSC). Nature of the data set: Cleavage of APP592-601 by human skin chymase. It counts as biochemical. As to conditions: 200 ng enzyme; standard peptide cleavage assay. The procedure:
as §1

For data set [3], the system named is extracts of mammalian tissues. Nature of the data set: Cleavage of amyloid-like substrate by soluble tissue extracts. It counts as biochemical. To be noted: low-ionic strength extract; 0.1 to 10 mM Ca++; pH 6.5 to 8. As for the experimental part:
To isolate the amyloid protease activities of the present invention, extracts of mammalian tissues were made in a variety of aqueous buffers, such as, for example, Tris, phosphate and HEPES, of about 20-50 mM pH 7.5, at 4°-8° C., using conventional homogenation procedures, such as, for example, Waring blender or Teflon homogenizer, followed by repeated centrifugation at 10,000-15,000×g. The supernatant soluble fraction from this stage ("low ionic strength") are decanted and the pellet is further extracted with high ionic strength salt, for example 1M NaCl, and a detergent, such as 1% Triton X-100. If, however, the amyloidin proteases are to be isolated from mammalian cells such as erythrocytes, conventional cell disruption techniques may be employed. Such techniques include homogenization, sonication, osmotic lysis and pressure cycling. Prior to disruption, the cells may be first concentrated by filtration, centrifugation, or other conventional methods.
The various extracts are generally incubated with the amyloid-like substrates under a variety of conditions. […]
Aliquots of the sample are analyzed by injection onto a C18 reversed-phase HPLC column and elution with a 0-60% gradient of 0.1% TFA/acetonitrile, to assess the degradation of the substrate. […] Little peptide cleavage activity was detected under other extraction conditions, for example, with high salt or detergents. […]

Data set [4] deals with T1, amyloidin. Nature of the data set: Inhibition of amyloidin by various inhibitors (APP592-601 peptide cleavage). The class given is biochemical.
Data set [5] concerns RMCP I. Nature of the data set: Inhibition of RMCP I, APP592-601 cleaving activity. The class given is biochemical, rat. As to conditions: pre-treatment with 200 ng.
For data set [6], the system named is RMCP I. Nature of the data set: Inhibition of RMCP I, Suc-Ala-Ala-Pro-Phe-pNA hydrolysing activity. It counts as biochemical, rat. To be noted: pre-treatment with 200 ng.
The test system of data set [7] is RMCP I. To be noted: known before; listed as α1 -antichymotrypsin; cited from earlier work.
The next data set has as its system brain protease. As to conditions: Abraham et al; cited from earlier work.
The subject of data set [8] is human skin chymase (HSC). As to conditions: known before; cited from earlier work.

T1 sequence (P52888 whole entry): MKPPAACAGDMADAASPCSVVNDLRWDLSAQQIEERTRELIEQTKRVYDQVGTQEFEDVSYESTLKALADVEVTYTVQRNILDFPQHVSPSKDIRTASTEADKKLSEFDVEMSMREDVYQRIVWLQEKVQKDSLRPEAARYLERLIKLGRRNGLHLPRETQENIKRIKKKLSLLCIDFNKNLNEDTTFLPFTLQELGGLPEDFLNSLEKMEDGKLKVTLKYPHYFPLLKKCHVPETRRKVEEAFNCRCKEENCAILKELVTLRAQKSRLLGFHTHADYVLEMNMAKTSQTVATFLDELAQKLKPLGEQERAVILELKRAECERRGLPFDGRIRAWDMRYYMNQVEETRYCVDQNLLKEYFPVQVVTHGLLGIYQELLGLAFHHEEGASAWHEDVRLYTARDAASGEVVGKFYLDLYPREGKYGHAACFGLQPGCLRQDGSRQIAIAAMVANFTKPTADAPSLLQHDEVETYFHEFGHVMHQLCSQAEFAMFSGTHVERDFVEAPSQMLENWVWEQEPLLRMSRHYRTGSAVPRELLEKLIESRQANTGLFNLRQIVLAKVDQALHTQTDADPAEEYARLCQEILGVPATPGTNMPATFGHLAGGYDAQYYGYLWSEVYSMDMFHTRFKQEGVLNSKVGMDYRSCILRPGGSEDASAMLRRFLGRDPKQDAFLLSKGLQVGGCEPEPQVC

In the case of `CSCC[C@H](NC(=O)[C@H](CCCCN)NC(=O)[C@@H](NC(=O)[C@H](CCC(=O)O)NC(=O)[C@H](CO)NC(C)=O)C(C)C)C(=O)N[C@@H](CC(=O)O)C(=O)N[C@@H](C)C(=O)N[C@@H](CCC(=O)O)C(=O)N[C@@H](Cc1ccccc1)C(=O)N[C@@H](CCCNC(=N)N)C(=O)O` [APP592-601] (Ac-SEVKMDAEFR-OH), the “site of cleavage by amyloidin” value at amyloidin [1] is recorded as “three-site cleavage”. Further, the “site of cleavage of APP592-601 by clipsin/RMCP I” value on clipsin/RMCP I is “cleavage at the Met-Asp bond; also recorded: selectively cleaves the amyloid substrate APP592-601 at the Met-Asp peptide bond; also recorded: all three proteases cleaved the APP592-601 peptide at the Met-Asp bond”. In the data set on human skin chymase (HSC) [2], the “site of cleavage of APP592-601 by human skin chymase” value is “cleavage at the Met-Asp bond; also recorded: all three proteases cleaved the APP592-601 peptide at the Met-Asp bond”. The “major sites of cleavage by crude tissue extract” value in data set [3] is “between the Met-Asp, the Asp-Ala, and the Ala-Glu bonds”.

B1: α1-ACT: general plasma serine proteinase inhibitor (protein, UniProt P01011 24-423, looked up)
Alpha-1-antichymotrypsin: HPNSPLDEENLTQENQDRGTHVDLGLASANVDFAFSLYKQLVLKAPDKNVIFSPLSISTALAFLSLGAHNTTLTEILKGLKFNLTETSEAEIHQSFQHLLRTLNQSSDELQLSMGNAMFVKEQLSLLDRFTEDAKRLYGSEAFATDFQDSAAAKKLINDYVKNGTRGKITDLIKDLDSQTMMVLVNYIFFKAKWEMPFDPQDTHQSRFYLSKKKWVMVPMMSLHHLTIPYFRDEELSCTVVELKYTGNASALFILPDQDKMEEVEAMLLPETLKRWRDSLEFREIGELYLPKFSISRDYNLNDILLQLGIEEAFTSKADLSGITGARNLAVSQVVHKAVLDVFEEGTEASAATAVKITLLSALVETRTIVRFNRPFLMIIVPTDTQNIFFMSKVTNPKQA
B1: the “% Control Activity” value with amyloidin [4] (assay conc. 30 ug/ml, 30 min pre-incubation, room temperature) is 121%. Besides, in the data set with amyloidin [4] (in words), the “inhibitory effect on amyloidin” value is reported as “Neither α-1-proteinase inhibitor or α-1-antichymotrypsin, two general plasma serine proteinase inhibitors, had any inhibitory effect”. The “inhibition of APP592-601 cleaving protease activity” value in the data set on RMCP I [5] is recorded as “completely inhibited”. Moreover, the “inhibition of Suc-Ala-Ala-Pro-Phe-pNA hydrolysing activity” value with RMCP I [6] is listed as “completely eliminated”. In the data set on RMCP I [7], the “inhibition of RMCP I, as known” value is “strong inhibitor of RMCP I; also recorded: inhibitable”. Moreover, in the data set with brain protease, the “inhibition of peptide cleavage by brain protease” value is listed as “inhibited”. Also, the “inhibition of HSC, as known” value in the data set with human skin chymase (HSC) [8] is “inhibitable”.
